What was measured:
[1] = target: HPV16 E6 protein (recombinant, full-length) (UniProt P03126)
[2] = target: UbcH7˜125I-ubiquitin thioester (UniProt P68036)
Chain of UbcH7˜125I-ubiquitin thioester (P68036 whole entry, looked up): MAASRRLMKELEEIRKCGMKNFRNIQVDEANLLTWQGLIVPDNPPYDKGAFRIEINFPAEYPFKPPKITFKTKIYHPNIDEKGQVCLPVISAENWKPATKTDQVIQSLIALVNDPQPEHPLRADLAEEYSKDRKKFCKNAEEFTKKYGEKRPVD

Chain of HPV16 E6 protein (recombinant, full-length) (P03126 whole entry): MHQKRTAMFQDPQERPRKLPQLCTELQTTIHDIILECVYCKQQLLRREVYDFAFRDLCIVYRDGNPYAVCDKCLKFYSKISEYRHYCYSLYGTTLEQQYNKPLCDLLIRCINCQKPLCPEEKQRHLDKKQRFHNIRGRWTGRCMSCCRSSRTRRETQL

Row | Substance | kcat of 125I-polyubiquitin chain formation in the presence of E6 [1] [s^-1 in its presence] | Km- [2] [µM]
1 | His6-E6AP ligase (full-length, baculovirus-expressed) | 0.81±0.045 | 0.046
2 | GST-E6AP ligase (wild-type, bacterially expressed fusion protein) |  | 0.058
